This note sets out measurements from PMC4924701.

The target in the assay is GADS (UniProt O75791). The assay can be described thus: anti-FLAG co-IP, Western blot. The conditions noted are these: reference: wild-type FLT3. (In general: A western blot detects proteins with antibodies after separation by electrophoresis.)

With FLT3 (from UniProt P36888) FLT3-Y955F, the “binding against the reference” value (sites Y955) was “weaker”.
Regarding “FLT3 (from UniProt P36888) FLT3-Y955F-Y969F”, the “binding against the reference” value (sites Y955,Y969) is “lost”.
